# Test results as given in IntAct's records for PubMed 20639859.
# B1: Serine/threonine-protein kinase Chk1 (Homo sapiens), O14757 (parent)
# chain: MAVPFVEDWDLVQTLGEGAYGEVQLAVNRVTEEAVAVKIVDMKRAVDCPENIKKEICINKMLNHENVVKFYGHRREGNIQYLFLEYCSGGELFDRIEPDIGMPEPDAQRFFHQLMAGVVYLHGIGITHRDIKPENLLLDERDNLKISDFGLATVFRYNNRERLLNKMCGTLPYVAPELLKRREFHAEPVDVWSCGIVLTAMLAGELPWDQPSDSCQEYSDWKEKKTYLNPWKKIDSAPLALLHKILVENPSARITIPDIKKDRWYNKPLKKGAKRPRVTSGGVSESPSGFSKHIQSNLDFSPVNSASSEENVKYSSSQPEPRTGLSLWDTSPSYIDKLVQGISFSQPTCPDHMLLNSQLLGTPGSSQNPWQRLVKRMTRFFTKLDADKSYQCLKETCEKLGYQWKKSCMNQVTISTTDRRNNKLIFKVNLLEMDDKILVDFRLSKGDGLEFKRHFLKIKGKLIDIVSSQKIWLPAT
# partner: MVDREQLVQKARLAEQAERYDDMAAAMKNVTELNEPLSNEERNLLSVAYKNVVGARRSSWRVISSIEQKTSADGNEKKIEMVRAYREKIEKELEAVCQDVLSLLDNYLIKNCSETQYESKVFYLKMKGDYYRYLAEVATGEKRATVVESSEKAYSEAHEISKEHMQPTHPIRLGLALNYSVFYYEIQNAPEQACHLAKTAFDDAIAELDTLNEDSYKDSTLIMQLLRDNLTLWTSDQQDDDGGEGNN
# Variants of: B1
# Conditions: with 1433g_human YWHAG
row,effect of a mutation on the interaction,Variant
1,disrupting interaction,MAVPFVEDWDLVQTLGEGAYGEVQLAVNRVTEEAVAVMIVDMKRAVDCPENIKKEICINKMLNHENVVKFYGHRREGNIQYLFLEYCSGGELFDRIEPDIGMPEPDAQRFFHQLMAGVVYLHGIGITHRDIKPENLLLDERDNLKISDFGLATVFRYNNRERLLNKMCGTLPYVAPELLKRREFHAEPVDVWSCGIVLTAMLAGELPWDQPSDSCQEYSDWKEKKTYLNPWKKIDSAPLALLHKILVENPSARITIPDIKKDRWYNKPLKKGAKRPRVTSGGVSESPSGFSKHIQSNLDFSPVNSASSEENVKYSSSQPEPRTGLSLWDTSPSYIDKLVQGISFSQPTCPDHMLLNSQLLGTPGSSQNPWQRLVKRMTRFFTKLDADKSYQCLKETCEKLGYQWKKSCMNQVTISTTDRRNNKLIFKVNLLEMDDKILVDFRLSKGDGLEFKRHFLKIKGKLIDIVSSQKIWLPAT [K38M]

# Variants of: B1
# Conditions: with 1433g_human YWHAG
# Remark: another data set of the same source
row,effect of a mutation on the interaction,Variant
1,disrupting interaction,MAVPFVEDWDLVQTLGEGAYGEVQLAVNRVTEEAVAVKIVDMKRAVDCPENIKKEICINKMLNHENVVKFYGHRREGNIQYLFLEYCSGGELFDRIEPDIGMPEPDAQRFFHQLMAGVVYLHGIGITHRDIKPENLLLDERDNLKISDFGLATVFRYNNRERLLNKMCGTLPYVAPELLKRREFHAEPVDVWSCGIVLTAMLAGELPWDQPSDSCQEYSDWKEKKTYLNPWKKIDSAPLALLHKILVENPSARITIPDIKKDRWYNKPLKKGAKRPRVTSGGVSESPSGFSKHIQANLDFSPVNSASSEENVKYSSSQPEPRTGLSLWDTSPSYIDKLVQGISFSQPTCPDHMLLNSQLLGTPGSSQNPWQRLVKRMTRFFTKLDADKSYQCLKETCEKLGYQWKKSCMNQVTISTTDRRNNKLIFKVNLLEMDDKILVDFRLSKGDGLEFKRHFLKIKGKLIDIVSSQKIWLPAT [S296A]
